Molecular target: T1, BMP4/7-Gremlin-1 complexes (Homo sapiens, UniProt O60565)
T1 sequence (O60565 25-184): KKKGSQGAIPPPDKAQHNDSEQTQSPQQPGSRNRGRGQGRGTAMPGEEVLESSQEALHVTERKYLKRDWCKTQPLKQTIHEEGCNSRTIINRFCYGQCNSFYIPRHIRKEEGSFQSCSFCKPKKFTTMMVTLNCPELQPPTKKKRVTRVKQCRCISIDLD
Experiment: SMAD phosphorylation assay: displacement of BMP4/7 from Gremlin 1-BMP complexes
Type: cell-based
Conditions: BMP4/7 50 ng/ml
Protocol: Experiments were again performed using lung fibroblasts from idiopathic pulmonary fibrosis patients. rhBMP-2 or rhBMP 4/7 were preincubated with rhGremlin-1 for 1 hour at room temperature. The BMP-2- or BMP4/7-Gremlin-1 complexes were incubated with different concentrations of the anti-Gremlin-1 antibodies overnight at 4° C. Antibody concentrations represent the final concentration on the plate.

**Q.** How did the “Displacement of BMP4/7 from Gremlin 1-BMP complexes (SMAD phosphorylation)” value (“Displacement” below) (antibody 0.63 μg/ml) turn out when “Ab7326: allosteric inhibitory anti-Gremlin-1 antibody from a naïve human library; CDRs SEQ ID NOS 4 to 9; mouse IgG1 in mouse experiments” was run?
**A.** 102.0%

**Q.** What about the “Displacement” value (antibody 1.27 μg/ml) of the same substance?
**A.** 111.1%

**Q.** What about the “Displacement” value (antibody 2.55 μg/ml) of the same substance?
**A.** 120.9%

**Q.** What about the “Displacement” value (antibody 5.1 μg/ml) of the same substance?
**A.** 121.4%

**Q.** And the “Displacement” value (antibody 10.2 μg/ml)?
**A.** 125.6%

**Q.** What about the “Displacement” value (antibody 20.3 μg/ml) of the same substance?
**A.** 130.3%

**Q.** And the “Displacement” value (antibody 40.6 μg/ml)?
**A.** 132.3%

**Q.** And the “Displacement” value (antibody 81.3 μg/ml)?
**A.** 133.7%
